Results reported in article doi:10.1101/2023.04.11.536446.

Biological target: Langya virus fusion protein (LayV-F) ectodomain, uncleaved (Langya virus)
Experiment: cryo-EM structure

**Q.** Which stoichiometry N does the source give for “Langya virus fusion protein (LayV-F) ectodomain, uncleaved (domain or fragment)” here?
**A.** 3
